The results in this text go back to patent US9096650B2, “Cyclic oligopeptides for binding to a target ligand” (LEXCICON LIMITED, priority 2006, dated 2015).

Bridges are numbered along the chain shown (N, C = ends). [ ]: non-standard residue; d: D form. Gly(decyl) = CCCCCCCCCC[C@H](N)C(=O)O

The test system of experiment [1] is J774-1 cells (a macrophage cell line). Put plainly: Suppression of TNF secretion stimulated by LPS in a macrophage cell line, varying epitope order and stereochemistry of associating amino acids (Example 3). Type of experiment: cell-based. The conditions noted are these: peptide 50 ug/ml; LPS 1.25 ug/ml; LPS alone 1861.9. The protocol:
• 1. Cyclic octapeptides were prepared with the following structures: cyclo(-DF-S-ΣL-R-DF-S-ΣL-R-) cyclo(-DF-S-ΣL-R-DF-S-ΣD-R-) cyclo(-DF-S-ΣD-R-DF-S-ΣD-R-) cyclo(-DF-R-ΣL-S-DF-R-ΣL-S-) cyclo(-DF-R-ΣL-S-DF-R-ΣD-S-) cyclo(-DF-R-ΣD-S-DF-R-ΣD-S-) wherein F, S and R are the epitope-forming amino acids, ΣL represents an associating amino acid which is an L-alpha aminocarboxylic acid in which the associating functional group is a side-chain residue consisting of an unbranched —C10H21; ΣD represents an associating amino acid which is a D-alpha aminocarboxylic acid in which the associating functional group is a side-chain residue consisting an unbranched —C10H21. These cyclic oligopeptides were prepared as solutions in distilled water at a concentration of 1 mg/ml. • 2. J774-1 cells (a macrophage cell line) were plated out in all the wells of a 24-well cluster plates at a seeding density of 3×10^5 cells/ml/well (1 ml RPMI 1640 culture medium per well), and incubated overnight at 37° C. in 5% CO2/air. • 3. The following day, the solutions from step 1 were administered to eighteen wells containing cells in step 2, to give three wells each with a final concentration of 50 ug/ml. The remaining wells were left untreated. The plate was incubated for a further four hours at 37 degC. • 4. Lipopolysaccharide (from E. coli strain 0111 B4) was added to the wells receiving the octapeptide solutions, as well as three of the wells receiving no peptide. The concentration of lipopolysaccharide was 1.25 ug/ml. • 5. The plate was incubated overnight, and the following day the supernatants were assayed for TNF using a commercial ELISA kit.

Experiment [2] has as its target thrombin (Homo sapiens, UniProt P00734). Kind of experiment: Inhibition of enzyme activity of thrombin, fluorogenic substrate (Example 7). Type of experiment: biochemical. The procedure: 1. Cyclic oligopeptides of the following structures were synthesised as previously described, and prepared in complexed form with cyclodextrin at concentration of 1 mg/ml on Hanks Balanced Salts Solution using the procedure outlined in example 6. (i) cyclo(-R-E-Σ-S-R-E-R-Σ-S-E-) (ii) cyclo(-A-K-ΣE-Y-K-A-ΣY-E-) (iii) cyclo(-dF-R-C-S-dF-R-C-S-) (iv) cyclo(-dF-S-C-R-dF-S-C-R-)
2. In wells of a […] microplate, 20 ul of thrombin solution (0.01 mg/ml) were dispensed, and mixed with 60 ul of cyclic oligopeptide solution
3. 20 ul of the substrate boc-beta-benzyl-Asp-Pro-Arg-7-amido-4-methylcoumarin hydrochloride (0.01 mg/ml) was added to each well, and the time course of generation of […] was measured.

Experiment [3] has as its target thrombin. Put plainly: cell-based or functional assay.
Setting [4] is: time 2.0 minutes, enzyme alone 770.9, lower = more inhibition.
The mark [5] stands for this setting: time 5.0 minutes, enzyme alone 1821.1.
Setting [6] is: time 10.0 minutes, enzyme alone 2163.5.
The mark [7] stands for this setting: time 15.0 minutes, enzyme alone 2253.2.
Setting [8] is: time 20.0 minutes, enzyme alone 2345.8.
The mark [9] stands for this setting: time 25.0 minutes, enzyme alone 2359.0.

Take cyclo(-DF-R-ΣL-S-DF-R-ΣL-S-): the “Concentration of TNF” value in experiment [1] was found to be 1990.4 pg/mL.
With “cyclo(-dF-S-C-R-dF-S-C-R-) (cyclo([dF]SCR[dF]SCR); disulfide 3-7; SMILES N=C(N)NCCC[C@@H]1NC(=O)[C@@H]2CSSC[C@H](NC(=O)[C@H](CO)NC(=O)[C@@H](Cc3ccccc3)NC1=O)C(=O)N[C@@H](CCCNC(=N)N)C(=O)N[C@H](Cc1ccccc1)C(=O)N[C@@H](CO)C(=O)N2) [Example 7 (iv), cysteines in the ring are oxidised to form an internal bridge]”, the “Thrombin proteolytic activity (Fluorescence Units - Arbitrary Units)” value came to 523.2 Arbitrary Units in experiment [2] (setting [4]); 1205.3 Arbitrary Units in experiment [2] (setting [5]); 1586.9 Arbitrary Units in experiment [2] (setting [6]); 1751.7 Arbitrary Units in experiment [2] (setting [7]); 1843.1 Arbitrary Units in experiment [2] (setting [8]); 1864.8 Arbitrary Units in experiment [2] (setting [9]).
Consider cyclo(-DF-R-ΣD-S-DF-R-ΣD-S-), for which the “Concentration of TNF” value in experiment [1] amounted to 1573.3 pg/mL.
Turning to “cyclo(-dF-R-C-S-dF-R-C-S-) (cyclo([dF]RCS[dF]RCS); disulfide 3-7; SMILES N=C(N)NCCC[C@@H]1NC(=O)[C@@H](Cc2ccccc2)NC(=O)[C@H](CO)NC(=O)[C@@H]2CSSC[C@H](NC1=O)C(=O)N[C@@H](CO)C(=O)N[C@H](Cc1ccccc1)C(=O)N[C@@H](CCCNC(=N)N)C(=O)N2) [Example 7 (iii), cysteines in the ring are oxidised to form an internal bridge]”, the “Thrombin proteolytic activity (Fluorescence Units - Arbitrary Units)” value was determined as 634.5 Arbitrary Units in experiment [2] (setting [4]); 1368.8 Arbitrary Units in experiment [2] (setting [5]); 1786.9 Arbitrary Units in experiment [2] (setting [6]); 1980.7 Arbitrary Units in experiment [2] (setting [7]); 2107.4 Arbitrary Units in experiment [2] (setting [8]); 2159.7 Arbitrary Units in experiment [2] (setting [9]).
As for cyclo(-DF-S-ΣD-R-DF-S-ΣD-R-), in experiment [1], the “Concentration of TNF” value came to 1438.0 pg/mL.
As to cyclo(-DF-R-ΣL-S-DF-R-ΣD-S-), in experiment [1], the “Concentration of TNF” value came out at 1625.2 pg/mL.
cyclo(-DF-S-ΣL-R-DF-S-ΣD-R-): the “Concentration of TNF” value in experiment [1] was 987.1 pg/mL.

B1: cyclo(-A-K-ΣE-Y-K-A-ΣY-E-) (peptide)
peptide: cyclo(AK[Gly(decyl)]EYKA[Gly(decyl)]YE)
SMILES: CCCCCCCCCC[C@@H]1NC(=O)[C@H](C)NC(=O)[C@H](CCCCN)NC(=O)[C@H](Cc2ccc(O)cc2)NC(=O)[C@H](CCC(=O)O)NC(=O)[C@H](CCCCCCCCCC)NC(=O)[C@H](CCCCN)NC(=O)[C@H](C)NC(=O)[C@H](CCC(=O)O)NC(=O)[C@H](Cc2ccc(O)cc2)NC1=O
Consider B1, for which, in experiment [3], the Inhibition of Thrombin proteolytic activity (Fluorescence Units - Arbitrary Units) at 2.0 minutes; control (enzyme alone) 770.9 (Fluorescence Units - Arbitrary Units) stood at 411, the Inhibition of Thrombin proteolytic activity (Fluorescence Units - Arbitrary Units) at 5.0 minutes; control (enzyme alone) 1821.1 (Fluorescence Units - Arbitrary Units) amounted to 816, the Inhibition of Thrombin proteolytic activity (Fluorescence Units - Arbitrary Units) at 10.0 minutes; control (enzyme alone) 2163.5 (Fluorescence Units - Arbitrary Units) was 1190 and the Inhibition of Thrombin proteolytic activity (Fluorescence Units - Arbitrary Units) at 15.0 minutes; control (enzyme alone) 2253.2 (Fluorescence Units - Arbitrary Units) was 1400. In experiment [3], this molecule showed an Inhibition of Thrombin proteolytic activity (Fluorescence Units - Arbitrary Units) at 20.0 minutes; control (enzyme alone) 2345.8 (Fluorescence Units - Arbitrary Units) of 1590 and an Inhibition of Thrombin proteolytic activity (Fluorescence Units - Arbitrary Units) at 25.0 minutes; control (enzyme alone) 2359.0 (Fluorescence Units - Arbitrary Units) of 1670.

B2: cyclo(-dF-S-C-R-dF-S-C-R-) (peptide)
peptide: cyclo([dF]SCR[dF]SCR)
modifications: disulfide 3-7
SMILES: N=C(N)NCCC[C@@H]1NC(=O)[C@@H]2CSSC[C@H](NC(=O)[C@H](CO)NC(=O)[C@@H](Cc3ccccc3)NC1=O)C(=O)N[C@@H](CCCNC(=N)N)C(=O)N[C@H](Cc1ccccc1)C(=O)N[C@@H](CO)C(=O)N2
In experiment [3], B2 displayed an Inhibition of Thrombin proteolytic activity (Fluorescence Units - Arbitrary Units) at 2.0 minutes; control (enzyme alone) 770.9 (Fluorescence Units - Arbitrary Units) of 523, an Inhibition of Thrombin proteolytic activity (Fluorescence Units - Arbitrary Units) at 5.0 minutes; control (enzyme alone) 1821.1 (Fluorescence Units - Arbitrary Units) of 1210, an Inhibition of Thrombin proteolytic activity (Fluorescence Units - Arbitrary Units) at 10.0 minutes; control (enzyme alone) 2163.5 (Fluorescence Units - Arbitrary Units) of 1590 and an Inhibition of Thrombin proteolytic activity (Fluorescence Units - Arbitrary Units) at 15.0 minutes; control (enzyme alone) 2253.2 (Fluorescence Units - Arbitrary Units) of 1750. Also, in experiment [3], the Inhibition of Thrombin proteolytic activity (Fluorescence Units - Arbitrary Units) at 20.0 minutes; control (enzyme alone) 2345.8 (Fluorescence Units - Arbitrary Units) stood at 1840 and the Inhibition of Thrombin proteolytic activity (Fluorescence Units - Arbitrary Units) at 25.0 minutes; control (enzyme alone) 2359.0 (Fluorescence Units - Arbitrary Units) stood at 1860.

B3: cyclo(-R-E-Σ-S-R-E-R-Σ-S-E-) (peptide)
peptide: cyclo(RE[Gly(decyl)]SRER[Gly(decyl)]SE)
SMILES: CCCCCCCCCC[C@@H]1NC(=O)[C@H](CCCNC(=N)N)NC(=O)[C@H](CCC(=O)O)NC(=O)[C@H](CCCNC(=N)N)NC(=O)[C@H](CO)NC(=O)[C@H](CCCCCCCCCC)NC(=O)[C@H](CCC(=O)O)NC(=O)[C@H](CCCNC(=N)N)NC(=O)[C@H](CCC(=O)O)NC(=O)[C@H](CO)NC1=O
In experiment [3], B3 had an Inhibition of Thrombin proteolytic activity (Fluorescence Units - Arbitrary Units) at 2.0 minutes; control (enzyme alone) 770.9 (Fluorescence Units - Arbitrary Units) of 411, an Inhibition of Thrombin proteolytic activity (Fluorescence Units - Arbitrary Units) at 5.0 minutes; control (enzyme alone) 1821.1 (Fluorescence Units - Arbitrary Units) of 816, an Inhibition of Thrombin proteolytic activity (Fluorescence Units - Arbitrary Units) at 10.0 minutes; control (enzyme alone) 2163.5 (Fluorescence Units - Arbitrary Units) of 1190 and an Inhibition of Thrombin proteolytic activity (Fluorescence Units - Arbitrary Units) at 15.0 minutes; control (enzyme alone) 2253.2 (Fluorescence Units - Arbitrary Units) of 1400. In addition, in experiment [3], the Inhibition of Thrombin proteolytic activity (Fluorescence Units - Arbitrary Units) at 20.0 minutes; control (enzyme alone) 2345.8 (Fluorescence Units - Arbitrary Units) worked out at 1590 and the Inhibition of Thrombin proteolytic activity (Fluorescence Units - Arbitrary Units) at 25.0 minutes; control (enzyme alone) 2359.0 (Fluorescence Units - Arbitrary Units) amounted to 1670.

B4: cyclo(-dF-R-C-S-dF-R-C-S-) (peptide)
peptide: cyclo([dF]RCS[dF]RCS)
modifications: disulfide 3-7
SMILES: N=C(N)NCCC[C@@H]1NC(=O)[C@@H](Cc2ccccc2)NC(=O)[C@H](CO)NC(=O)[C@@H]2CSSC[C@H](NC1=O)C(=O)N[C@@H](CO)C(=O)N[C@H](Cc1ccccc1)C(=O)N[C@@H](CCCNC(=N)N)C(=O)N2
For the molecule B4, in experiment [3], the Inhibition of Thrombin proteolytic activity (Fluorescence Units - Arbitrary Units) at 2.0 minutes; control (enzyme alone) 770.9 (Fluorescence Units - Arbitrary Units) is 634, the Inhibition of Thrombin proteolytic activity (Fluorescence Units - Arbitrary Units) at 5.0 minutes; control (enzyme alone) 1821.1 (Fluorescence Units - Arbitrary Units) amounted to 1370, the Inhibition of Thrombin proteolytic activity (Fluorescence Units - Arbitrary Units) at 10.0 minutes; control (enzyme alone) 2163.5 (Fluorescence Units - Arbitrary Units) was 1790 and the Inhibition of Thrombin proteolytic activity (Fluorescence Units - Arbitrary Units) at 15.0 minutes; control (enzyme alone) 2253.2 (Fluorescence Units - Arbitrary Units) amounted to 1980. In addition, in experiment [3], the Inhibition of Thrombin proteolytic activity (Fluorescence Units - Arbitrary Units) at 20.0 minutes; control (enzyme alone) 2345.8 (Fluorescence Units - Arbitrary Units) came to 2110 and the Inhibition of Thrombin proteolytic activity (Fluorescence Units - Arbitrary Units) at 25.0 minutes; control (enzyme alone) 2359.0 (Fluorescence Units - Arbitrary Units) is 2160.
